Laboratory results from article PMC11430298, “Complexes of HMO1 with DNA: Structure and Affinity”.

T1: HMO1 (Saccharomyces cerevisiae, UniProt Q03973 1-246)
T1 sequence: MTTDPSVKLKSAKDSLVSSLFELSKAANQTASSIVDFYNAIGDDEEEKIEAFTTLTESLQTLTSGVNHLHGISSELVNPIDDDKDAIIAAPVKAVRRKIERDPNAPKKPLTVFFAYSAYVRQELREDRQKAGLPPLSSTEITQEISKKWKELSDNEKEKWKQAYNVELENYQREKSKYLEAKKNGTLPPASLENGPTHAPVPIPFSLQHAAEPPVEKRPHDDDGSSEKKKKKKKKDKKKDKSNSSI


Molecular target: T1, HMO1
Test: EMSA; apparent Kd from Hill fit of free DNA; 6 nM DNA; EMSA: 17 mM HEPES pH 7.6, 2 mM Tris-HCl, 0.8 mM Na3EDTA, 0.11 mM 2-mercaptoethanol, 11 mM NaCl, 1.1% glycerol, 12% sucrose; 6 nM DNA, 10-800 nM HMO1, 30 min at
Settings: protein: recombinant, tags: N-terminal His6 (pET15b), blunt

| Binder | Kd (label: 5'-Cy3 on strand 2 (S6)) [µM] | Kd (label: 5'-Cy3 on strand 1 (S3)) [µM] |
| --- | --- | --- |
| SO duplex (IFHL site) (dsDNA) DNA 1: ACTACGCTCTAGGCAGAGTTCACC DNA 2: GGTGAACTCTGCCTAGAGCGTAGT | 0.062 | – |
| RO duplex (randomized sequence) (dsDNA) DNA 1: CTATCGGCACACTTCACGGCACAC DNA 2: GTGTGCCGTGAAGTGTGCCGATAG | – | 0.128 |
